Bridge positions count the residues as written; N and C are the ends. Square brackets hold non-standard residues; d marks the D form. Phe(4-tBu) = CC(C)(C)c1ccc(C[C@H](N)C(=O)O)cc1; NMeR = CN[C@@H](CCCNC(=N)N)C(=O)O; β3hE = N[C@@H](CCC(=O)O)CC(=O)O; NMeK = CN[C@@H](CCCCN)C(=O)O; Pen = CC(C)(S)[C@H](N)C(=O)O; dNMeK = CN[C@H](CCCCN)C(=O)O
B1: SEQ ID NO: 214 (peptide)
peptide: Ac-[Pen][NMeR]SDTL[Pen]WE[dNMeK]-NH2
modifications: disulfide 1-7; not fully specified (residue 10); printed as (Ac Pen N-Me-R S D T L Pen W E N-Me-k NH2)2 DIG, disulfide Pen-Pen; also: dimer, two subunits joined by DIG linker
notes: also called peptide 214
B2: SEQ ID NO: 215 (peptide)
peptide: Ac-[Pen][NMeR]SDTL[Pen]WE[NMeK]-NH2
modifications: disulfide 1-7; not fully specified; printed as [Ac-Pen-(N-Me-Arg)-Ser-Asp-Thr-Leu-Pen-Trp-Glu-(N-Me-Lys)-NH2]2-DIG; also: homodimer: two identical subunits joined by DIG linker at the Lys10 side chains, each subunit has its own Pen1-Pen7 disulfide
notes: also called peptide 215
B3: SEQ ID NO: 218 (peptide)
peptide: Ac-[Pen][NMeR]SDTL[Pen][Phe(4-tBu)][β3hE][dK]-NH2
modifications: disulfide 1-7; not fully specified (residue 10); printed as (Ac Pen N-Me-R S D T L Pen F(4-tBu) b-H-E k NH2)2 DIG, disulfide Pen-Pen; also: dimer, two subunits joined by DIG linker
notes: also called peptide 218
B4: SEQ ID NO: 213 (peptide)
peptide: Ac-[Pen][NMeR]SDTL[Pen]W[β3hE][dK]-NH2
modifications: disulfide 1-7; not fully specified (residue 10); printed as (Ac Pen N-Me-R S D T L Pen W b-h-E k NH2)2 DIG, disulfide Pen-Pen; also: dimer, two subunits joined by DIG linker
notes: also called peptide 213; Peptide XX
B5: SEQ ID NO: 217 (peptide)
peptide: Ac-[Pen][NMeR]SDTL[Pen]WE[dK]-NH2
modifications: disulfide 1-7; not fully specified (residue 10); printed as (Ac Pen N-Me-R S D T L Pen W E k NH2)2 DIG, disulfide Pen-Pen; also: dimer, two subunits joined by DIG linker
notes: also called peptide 217

Target: T1, human α4β7 integrin on cells (human, UniProt P13612 34-1032; P26010 20-798)
T1 construct: whole, on cells; also called α4β7 cell (Hu); RPMI8866 cells
Assay: PBMC memory T cell adhesion

| IC50 | Binder |
| --- | --- |
| 24.5 nM | B1 |
| 16.5 nM | B2 |
| 1280 nM | Ac-C[NMeR]SDTL[Pen]W[dK]-NH2 (disulfide 1-7; also: homodimer via DIG linker on D-Lys9 side chains, also called peptide 204) [SEQ ID NO: 204] |
| 2 nM | B3 |

Target: T2, α4β1 (R&D Systems #5668-A4) (UniProt P13612 34-970; P05556 21-728, limits assumed)
T2 construct: bought; also called soluble α4β1
Assay: competition ELISA vs VCAM-1

| IC50 | Binder |
| --- | --- |
| 436 nM | B1 |
| 270 nM | B2 |
| 700 nM | Ac-C[NMeR]SDTL[Pen][dK]-NH2 (disulfide 1-7; also: homodimer via IDA linker on D-Lys8 side chains, also called peptide 203) [SEQ ID NO: 203] |
| 463 nM | Ac-C[NMeR]SDTL[Pen]W[dK]-NH2 (disulfide 1-7; also: homodimer via DIG linker on D-Lys9 side chains, also called peptide 204) [SEQ ID NO: 204] |
| 490 nM | B3 |
| 302 nM | Ac-[Pen][NMeR]SDTL[Pen]W[dE][dK]-NH2 (disulfide 1-7; also: dimer, two subunits joined by DIG linker, also called peptide 211) [SEQ ID NO: 211] |
| 539 nM | B4 |
| 315 nM | B5 |

Target: T3, mouse α4β7 integrin on TK1 cells (mouse, UniProt Q00651 41-1039; P26011 20-806)
T3 construct: whole, on cells; also called α4β7 cell (Mu); Cell Adhesion α4β7 Mouse
T3 sequence (Q00651 41-1039, chain 1 of 2): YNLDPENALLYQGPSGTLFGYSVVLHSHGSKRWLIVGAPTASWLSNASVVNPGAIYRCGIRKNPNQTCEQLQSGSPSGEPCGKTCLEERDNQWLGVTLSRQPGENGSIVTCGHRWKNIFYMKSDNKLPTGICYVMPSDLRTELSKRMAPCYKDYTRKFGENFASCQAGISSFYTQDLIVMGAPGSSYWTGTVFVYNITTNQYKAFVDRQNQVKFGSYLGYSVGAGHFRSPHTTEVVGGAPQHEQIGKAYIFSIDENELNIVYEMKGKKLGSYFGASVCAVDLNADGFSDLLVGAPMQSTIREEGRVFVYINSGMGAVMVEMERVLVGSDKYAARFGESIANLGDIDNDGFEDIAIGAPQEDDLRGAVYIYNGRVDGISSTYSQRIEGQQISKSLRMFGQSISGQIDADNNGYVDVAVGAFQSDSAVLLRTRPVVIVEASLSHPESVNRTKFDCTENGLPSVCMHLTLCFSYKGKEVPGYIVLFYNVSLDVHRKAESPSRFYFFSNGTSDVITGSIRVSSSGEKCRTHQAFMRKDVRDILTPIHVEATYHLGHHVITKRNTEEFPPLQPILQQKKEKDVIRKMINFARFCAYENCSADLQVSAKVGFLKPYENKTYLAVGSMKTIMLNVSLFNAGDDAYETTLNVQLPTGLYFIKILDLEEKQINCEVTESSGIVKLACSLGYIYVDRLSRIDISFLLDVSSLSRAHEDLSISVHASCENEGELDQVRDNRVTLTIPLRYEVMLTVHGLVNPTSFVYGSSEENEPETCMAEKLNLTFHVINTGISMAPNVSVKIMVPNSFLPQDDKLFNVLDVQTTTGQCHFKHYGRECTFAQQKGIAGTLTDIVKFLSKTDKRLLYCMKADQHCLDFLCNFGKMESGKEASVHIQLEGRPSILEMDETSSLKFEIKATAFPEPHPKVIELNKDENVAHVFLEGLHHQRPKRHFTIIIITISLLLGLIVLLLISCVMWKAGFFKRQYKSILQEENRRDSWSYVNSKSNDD
T3 sequence (P26011 20-806, chain 2 of 2): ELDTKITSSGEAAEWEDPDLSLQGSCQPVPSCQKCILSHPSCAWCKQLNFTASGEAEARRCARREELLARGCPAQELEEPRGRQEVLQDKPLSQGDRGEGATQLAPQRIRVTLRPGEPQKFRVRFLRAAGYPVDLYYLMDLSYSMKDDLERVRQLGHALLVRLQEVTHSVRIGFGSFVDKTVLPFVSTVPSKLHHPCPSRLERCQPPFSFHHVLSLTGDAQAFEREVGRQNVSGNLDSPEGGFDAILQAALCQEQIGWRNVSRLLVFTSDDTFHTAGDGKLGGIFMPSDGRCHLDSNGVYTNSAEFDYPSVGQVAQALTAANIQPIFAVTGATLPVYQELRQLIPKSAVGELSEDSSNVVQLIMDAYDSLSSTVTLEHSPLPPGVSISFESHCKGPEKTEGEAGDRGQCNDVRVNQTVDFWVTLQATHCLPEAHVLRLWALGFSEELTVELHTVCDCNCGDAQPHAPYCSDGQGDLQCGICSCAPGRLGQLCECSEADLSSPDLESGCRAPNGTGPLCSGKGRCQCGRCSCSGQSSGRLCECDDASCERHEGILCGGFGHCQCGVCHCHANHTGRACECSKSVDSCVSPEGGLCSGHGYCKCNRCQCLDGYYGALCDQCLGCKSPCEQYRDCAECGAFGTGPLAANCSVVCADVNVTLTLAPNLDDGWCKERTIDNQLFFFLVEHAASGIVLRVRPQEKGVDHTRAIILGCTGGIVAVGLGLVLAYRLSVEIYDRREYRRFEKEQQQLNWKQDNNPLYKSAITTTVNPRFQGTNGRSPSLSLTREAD
Assay: TK1 cell adhesion to MAdCAM-1

| IC50 | Binder |
| --- | --- |
| 1.1 nM | B1 |
| 0.9 nM | B2 |
| 633 nM | Ac-C[NMeR]SDTL[Pen][dK]-NH2 (disulfide 1-7; also: homodimer via IDA linker on D-Lys8 side chains, also called peptide 203) [SEQ ID NO: 203] |
| 0.5 nM | B3 |
| 7.3 nM | Ac-[Pen][NMeR]SDTL[Pen]W[dE][dK]-NH2 (disulfide 1-7; also: dimer, two subunits joined by DIG linker, also called peptide 211) [SEQ ID NO: 211] |
| 4.2 nM | B4 |
| 1.2 nM | B5 |

Target: T4, rh integrin α4β7 (R&D Systems #5397-A30) (human, UniProt P13612 34-970; P26010 20-723)
T4 construct: bought; coated on a nickel coated plate; also called immobilized α4β7; immobilized α4β7 integrin protein
Assay: competition ELISA vs MAdCAM-1

| IC50 | Binder |
| --- | --- |
| 4.1 nM | B1 |
| 2.2 nM | B2 |
| 7.5 nM | Ac-C[NMeR]SDTL[Pen][dK]-NH2 (disulfide 1-7; also: homodimer via IDA linker on D-Lys8 side chains, also called peptide 203) [SEQ ID NO: 203] |
| 2 nM | Ac-C[NMeR]SDTL[Pen]W[dK]-NH2 (disulfide 1-7; also: homodimer via DIG linker on D-Lys9 side chains, also called peptide 204) [SEQ ID NO: 204] |
| 2.8 nM | B3 |
| 3 nM | Ac-[Pen][NMeR]SDTL[Pen]W[dE][dK]-NH2 (disulfide 1-7; also: dimer, two subunits joined by DIG linker, also called peptide 211) [SEQ ID NO: 211] |
| 4.7 nM | B4 |
| 2.3 nM | B5 |

Target: T5, human α4β1 integrin on cells (human, UniProt P13612 34-1032; P05556 21-798)
T5 construct: whole, on cells; also called α4β1 cell; Jurkat cells
Assay: Jurkat cell adhesion to VCAM-1

| IC50 | Binder |
| --- | --- |
| > 100000 nM | Ac-C[NMeR]SDTL[Pen][dK]-NH2 (disulfide 1-7; also: homodimer via IDA linker on D-Lys8 side chains, also called peptide 203) [SEQ ID NO: 203] |
| > 100000 nM | Ac-C[NMeR]SDTL[Pen]W[dK]-NH2 (disulfide 1-7; also: homodimer via DIG linker on D-Lys9 side chains, also called peptide 204) [SEQ ID NO: 204] |
| > 100000 nM | B3 |
| > 100000 nM | Ac-[Pen][NMeR]SDTL[Pen]W[dE][dK]-NH2 (disulfide 1-7; also: dimer, two subunits joined by DIG linker, also called peptide 211) [SEQ ID NO: 211] |
| > 100000 nM | B4 |
| > 100000 nM | B5 |

Target: T1, human α4β7 integrin on cells
Assay: RPMI8866 cell adhesion to MAdCAM-1

| IC50 | Binder |
| --- | --- |
| 2.5 nM | B1 |
| 3 nM | B2 |
| 200 nM | Ac-C[NMeR]SDTL[Pen][dK]-NH2 (disulfide 1-7; also: homodimer via IDA linker on D-Lys8 side chains, also called peptide 203) [SEQ ID NO: 203] |
| 22 nM | Ac-C[NMeR]SDTL[Pen]W[dK]-NH2 (disulfide 1-7; also: homodimer via DIG linker on D-Lys9 side chains, also called peptide 204) [SEQ ID NO: 204] |
| 0.78 nM | B3 |
| 22 nM | Ac-[Pen][NMeR]SDTL[Pen]W[dE][dK]-NH2 (disulfide 1-7; also: dimer, two subunits joined by DIG linker, also called peptide 211) [SEQ ID NO: 211] |
| 12 nM | B4 |
| 3.2 nM | B5 |

Reference: US20220162261A1 (published 2022)
